# Test results: the DeepSol protein solubility set
# Test: soluble on expression in E. coli; label from the status in PepcDB or PDB records
row,Sequence,soluble on expression in E. coli
1,MGSDKIHHHHHHMVERALALSELNQSEPVELVSNSKPSYPDLGEAVSVEVLVGWGKEAIAIIRDNYPDVLCNSDWECDVETTRLVNTQGLDCYYSDTTLSCYMSAEWVRGDDFLSVSDGQTQRDYLDPEKLAYQILQRLVWAKENVPPPNGRVPVLFTSKAADMLWGTAQAALNGKRVLEAASPWAERVGKQVIAPSLTLYQDPQAGPYSCPFDDEGTPTKSLVFIEKGILQNYYCDRTTGRQLGNSTTGNGFRPGLGSYPTPGLFNFLIKPGSKSLKDLIQNMDDGLIVDQMLGGSGGISGDFSINIELGYRVQKGQVIGRVKDTMVAGNVYTALKQVELGSDADWNGSCYTPSLIVEGLSTTGRNN,not soluble
2,MSLTTDWTTQVAAAAASVTAAEVDTARRALDYLCLAQLYLRDNVTLSTPLQPGHVKPAPAGHWGVCPPVNAVLAALGPYRRMPGTDVRVVHGGGHAGPSALAHAWITGALDTGEDAFGHTEVDLARLCAQFPRTRFGGEITPLIPGHDHLGGQLGPALAIAHGMGLDAPDRLVVAVIGDGECETGATAAAWLGARALIGTGTHGRVLPVILANGLRMGSASLLAALDPCDLARHLGGLGYEVITAGPSTDEITAAVARALTGLRPLQYGPSTVVVVTVDKGHGVPKTVAGQQIAQTPRVHKVPLRNPRDDNAEFVALERWLSGYRPQELFTGGAPTATVRRALAPAATGRVELHAPRGCIAAASAVADRVAGADFGAAITATLRELNTVYGLRVFSPDELASNRIELGAPDSGWTIEVLNEELCHAWAQGYQATGRRGVVVGYEAFAPITASLLAQQLLAHRLAAAAGRPPGPSLVYLLTSLGWHNTITHANPGLIDIAIGTADPSVHIYLPADATRTAAALTFAVRKLGRASLVVASKHPMPAHPHTTIDAELRDGYAVWPHIADDLDPEMVLVSIGDIAARELTRAATTITATRTATRLRYLHIHDLTSLGAPGRRDAAISAADFERLFPPGAAVLIATTCHPAAVHALLGERGAPRTVVVRGWANPPLPMSHDELLDHTGIAATALHEAALALLDSTTCDPLIRQGAREGHHHHHH,soluble
3,MGSDKIHHHHHHSEDTMDRINKDHDHTTSVASRFILADVITSTAFSNASGDINTYASSYIEYEVGVDNQLYYAEVRENEPSSSSTFNNSWNGIYSSLKNARIIIDQCGEGGRDHGNDVTRGMAEVMAAYNCALIADFFGDAPCSQAALVDEKGSPVYMTPKMDTQQEIYTQIISYLDDAIANLQKEDLADVTEQDFLYAGDADKWLKFAYGLKARYTMRLINRSSNKSADYEKVLDYVSKSFTSADDQAAFDIYDSNNINPFYGFYNSRAGFGASTSLGTKLLAYNDPRANRAFFTPIVDKKRSQVAANDPSLVPAPNGSPDQSTSKYGISAFVYAKTAPTLLMSYHELMFLKAEALCRLNRDAEDALKEAVVAGLLNAENSISIAIKELGSGLNTNSSEVITETSAGKYFDDVVKAKYAANPLQETMIQKYLAMWGASGEATETYNDFRRMKGLNENFITLTNPNNSSKFPLRYPYGNSDTAANPEVKAAYGNGDYVYSEPVWWAGGSR,not soluble
4,MLIVGINGSPKKEGNTKYLINTVLEEAKSQGVETMVLEVGELLNSVKNPFCVVCSNPCSSICYKGTKLEEAYEILKKADAIVMGSPVYFGSVSAQLKAFFDKTRKLRSEKALYNKFACGVTVGGARFGGQETTMKALHDIMLVHGMTIVGDGYVGDDCGHHGVCAQQPADKDEFAIKRAKILGRRLVDVCKKAGALEHHHHHH,soluble
5,MGSDKIHHHHHHMAGPGCMLMFNRAAKDDATPRMRAGVAVNTGHSLAYQHVIEPSAGYQAKLEAELNPENGRRLSASLIAQILNLGSTSDPDIPAASQLAMAILKTIEAFQISREREPGPEHAPLDVLPLALRSPDADERAHEVCQRIAEHARALWQRMINERSGIPITHDTYLKILQLREPYFSFDFWILDEYQDTTPVVDELVNQQEGQKLYIGDPYQAIYSWRGAINALAGPIDRGLPVHYLTDSFRYNHQIAGMATLILRALGEPVPVRGQPRNFIHRRADDNHTIICRTNLSILVRAGELIVRGSPVFVDGGIPKSTYQRIESALALFQGRPNDVRISTLRQMGSWTAFVDYARGLGERADDMMNLIALVEQYQSQLPVLIDTLKRRLPYRNPRKPGQTTLITAHRSKGRQFAHVELDPDIGLPGDLMIKIQNQAPLQPKERESLHLLYVALTRAELSLELPKRIKENLKLLHGWFNRGTDTAETFTAKTTIPLPKAHAQTAQRARTEAFIRAHRRTD,not soluble
6,MTVGYGFSASGDYSQSKIRADHASVTEQSGIYAGEDGYQIKVRDNTDLKGGIITSSQSAEDKGKNLFQTATLTHSDIQNHSRYEGKSFGIGGSFDLNGGWDGTVTDKQGRPTDRISLAAGYGSDSDSQSSITKSGINTRNIHITDEAGQLARTGRTAKETEARIYTGIDTETADQHSGRLKNSFDKDAVAKEINLQREVTKEFGRNATQAVAAVADKLGNTQSYERYQEARTLLEAELQNTDSEAEKAAFRASLGQVNAYLAENQSRYDTWKEGGIGRSILHGAGRQSAMRRAGMSVRRQ,not soluble
7,MVLSCRVVDCGGLKLKENQTLLLLVSTIHNSSEVGKLSIDAEEKRSKEWLEMPCAEGMLSLKLTLWQDLLKGINSVFHGQVRVDVDENWKSGPAKWFYLRSKANEDGEGGEDGGDIGDATVKVTYQIDHILRMQVYKPLLDLLFLAGDVQPLTASLVAVIEALPKVELGPVSRSLVELMAQSDRIRPVLSSLYVNSILKCQDENTLFRGQSLSGKMLFEILTTYGKMYLITTLKPVVDKIYKERKNCEVDPARVAVGASLEKNRNNLLVYFQMLFERVTTSSTNCPHLIKQLLYDLRNVVGTHSSRSGVQRLAVSSFVIMRFFAAAILNPKAFEIRKDQPDLRVSRTLLLLSKLLQRLSNCSVSEGPLSSKEIWLNGVFETVTSEQHKSVMASFLDNISLVGDRSEPQKCTVFKFGNLQQVDRSRLAWKKVLHYKKRYVQLTNTHLIWQKDVQCAPKGTVPLSDIKFVNVDNKNIITIVCETMQLQFEAPGGVEATDWLNAIERQRNRAAHEIAETPGEHFFVDAERHVDKIHTLLYKYRETMIEWRDQLQSNVELDEKTAPELLKASYVVEEERQSHKDSLIATLCSTIDVTDAIQLAHTEYEKENKVSRRIDAIITAKKRQKSFSVK,not soluble
8,MQYCELDLSGQWLDTVYCEENFSDFVFIKFLNPSQFEEKIYCYTLHITKRTLENKRLLLYYEDEFKKHGHDINELVGDGIILRSCWNPRQ,soluble
9,MKTRITELLKIDYPIFQGGMAWVADGDLAGAVSKAGGLGIIGGGNAPKEVVKANIDKIKSLTDKPFGVNIMLLSPFVEDIVDLVIEEGVKVVTTGAGNPSKYMERFHEAGIIVIPVVPSVALAKRMEKIGADAVIAEGMEAGGHIGKLTTMTLVRQVATAISIPVIAAGGIADGEGAAAGFMLGAEAVQVGTRFVVAKESNAHPNYKEKILKARDIDTTISAQHFGHAVRAIKNQLTRDFELAEKDAFKQEDPDLEIFEQMGAGALAKAVVHGDVDGGSVMAGQIAGLVSKEETAEEILKDLYYGAAKKIQEEASRWTGVVRND,not soluble
10,MGSDKIHHHHHHNFDDLLQLLEIHSRVFDVTPPSTGTVGSMRYLEYNGHVLANVEDLYILDNNKLPSPGVPVETLKLFGVDYIQTGDGVKIITCRVNSIEEIGKTVVVNFEGEKNFDVEQTQNSVRIIAKDWLLFRGVVKMPEEVLYEKENVRIERTAESDGQFRILLSAESVGKYVVKPFGERVDPYEKDVVFLVGYGDGRIIVRSFSKDLNGLDLPAYSESLKLARKIANELGYKLEECPVYDIPVGVIGMIVLLKGKDEMPVFLNTVERLMAE,not soluble
11,GPGSMGSGYLKRKRQRQELLNDFYSALSLSSFDTTSGQFSKLVTRTVYHYPSSLPFPVLLDDDFPAEPYRSRNKDIKSAIHWGQRKLLLSEIQLLSMYCRPEISYHIVYAGAAPGTHLAFLDEMFSCRHTWELIDPGQFDRAVLEPRANFRLRNEFFTNATAYGINARRLTEVLPALGFVYQNVAVDSVQVDKKAIHEQLQDIVGTLDVARGTEDIPAMYEAPLSLPKGLELLAQVALERNKPLLFISDIRSGSVALPNFEDHVAENMRAQECWTNILHGEHSMLKFRLPYTSKSTKFGGQGAVRETLLIREDGTVPYLRGDMLLPIWTRPTSTEGRLVVPQGAFQKDYNVAHVEDQFFFFNSSVREQVHFNHLVAHDSELDHHYDAAAEVHCLLTYLRFIRPELKTAKTGELRKEVLRVAHSITAHLGITFEDAIRRRDALMINHAKKSQNKAVEGHKDDAYGDEEAEEQEAKSAASKVRAGSNESAAAADGAATSTTAPVPPSEWEQTTRLMVRLSNYDRNRSVWSRNVREEEHSKTSGFWVTTKMPQA,not soluble
12,MAHHHHHHMSGRCFSKSLESDVDSAAAAESSLSATEVSTDGYRTGKQPRHVAFLLEKDLKETDTEEVPRAAFAGRRGGAGARPTEEQWSWSGRAEADALRQRALQCGEDFVRVASGLGYEVVAHTPTAFLKRGMTEKTAALFGVAQPEKQGGTGLAVARSATARASTGAVLLSSPSAAETTVTLAAPFSSGGSSVFPRKGELDSCSSRSSSPGTEDQVGMVPVLSPLLQGSEPGQRRLSTDASLRALEVQTPRTTGAHAGVYRYPATIASLHPLQDSTPNSVADGNGVHTSPHRSSRTGFGAEHHANDGANPPGPAIANSTRAVHWTPTTRHPSPSRGSPASHRALTPRTVFPTGNHPVTASLMVPGQQSDAFAVRLSIMDVTSSRTNSNTNTSMSTEHLNGHEFVNVGGSQNTNNRFFTSSTDALNTPAVRMTDDEDWLRATGRLIQ,not soluble
13,MDVKNAFVETAMGVLSEFGFSSVFAEKNETGGLVEAEYVNVVMGVNGAISGNLIMTAKKESALAIASAMLGGMEFTEVDDMVKSAIGELLNIIAGNAFSKVDVKAAVYISTPTLLIGEGISVLLQSPGTNKLVFDMDGQSMDVFLDIE,not soluble
14,KNKTIEVYVDRATLPTIQQMTQIINENSNNKKLISWSRYPINDETLLESINGSFFKNRPELIKSLDSMILTNEIKKVIINGNTLWAVDVVNIIKSIEALGKKTEIELNFYDDGSAEYVRLYDFSRLPESEQEYKISLSKDNIQSSINGTQPFDNSIENIYGFSQLYPTTYHMLRADIFETNLPLTSLKRVISNNIKQMKWDYFTTFNSQQKNKFYNFTGFNPEKIKEQYKASPHENFIFIGTNSGTATAEQQIDILTEAKKPDSPIITNSIQGLDLFFKGHPSATYNQQIIDAHNMIEIYNKIPFEALIMTDALPDAVGGMGSSVFFSLPNTVENKFIFYKSDTDIENNALIQVMIELNIVNRNDVKLISDLQ,soluble
15,SDPAGASVASAIGGEGEKFAVGNIYSVKVITGDEFRGIVMAYDPIPNFVFFEEGTKPRPGHLKNTRMVNASFITGLSYLGKTEDPFDSDNFSVDLNGLRAKEALAIRQAEADAERMGVGVTAEAQSIFDALSKTLPVQWENSDILVMKEVRVRSPYLSDCVFGGTDAANNRVKKVLELERRRLQLFGT,soluble
16,ICTTICPYGRLQGVLLDKNSINVAYDYIRGERRGHLKRGEDREIAGKGDCIDCHQCVHVCPTGIDIRNGVQMECINCTACIDEC,not soluble
17,RVETQPEVQLPGPAPNLRAYAASPTSITVTWETPVSGNGEIQNYKLYYMEKGTDKEQDVDVSSHSYTINGLKKYTEYSFRVVAYNKHGPGVSTPDVAVRTLSD,soluble
18,MAHHHHHHMYSDGERKTVSELQREAEATRKEIIEEAQRLERIKKATAKTQFSIDQLFRFFAREVETEGEKKMLIDLLSSNPPDLHIECVPVLPVVIAIANGRMTNARRIYATDNAFLDDSAFIFLVHTLRFLPQACKIDFLDISGTRVTERGMCFVLEMMIERNTPFTLVAKRLSIPSPEAEAMRARYASLMSALRDKKCCRFIQE,not soluble
